This is an account of results in patent US20040248211A1, “ICAM-related protein” (priority 1992, published 2004).

Assay [1] concerns binding of JY cells (CD18+) to recombinant soluble human ICAM-R. Nature of the assay: JY cell adhesion to recombinant soluble human ICAM-R. It is filed as cell-based. The settings on record: for Inhibition (%) of total CD18-dependent binding: antibody 10 μg/ml, PMA-treated JY cells, total = adhesion blocked by anti-CD18 60.3. On the procedure: The partially purified shICAM-R protein was assayed for binding to SKW3 cells that were pretreated with phorbol ester as described in Example 7 to activate LFA-1-dependent adhesion. The ICAM-R protein was coated onto 96-well Immulon 4 (Dynatech) plates after adjusting the lectin eluate to 25 mM carbonate pH 9.6 and incubated overnight at 4° C. The plates were washed two times with PBS, blocked for 30 minutes at 37° C. with 200 ul/well PBS, 1% BSA, and washed again with PBS before adding cells. SKW3 cells were washed in serum-free RPMI (Gibco), labelled with Calcein-AM (Molecular Probes), and stimulated with PMA. Cells were then added to the plates and incubated for 1 hour at 37° C. The plates were inverted in prewarmed PBS, 1% BSA and were incubated for 30 minutes. The plates were then removed and half of the contents of each well was aspriated. The plates were then scanned with a fluorescence microscope and an automated fluorescence reader.
ICAM-R specific monoclonal antibodies listed in Table 11 in Example 22 were tested for their ability to inhibit binding of JY cells (CD18^+) to recombinant soluble human ICAM-R. Adhesion assays were performed as described in Example 9. Cells were treated with PMA and antibodies were then added at a final concentration of 10 μg/ml. Data was collected from triplicate wells during three independent experiments. Total CD18-dependent binding was determined as the amount of adhesion blocked by a control anti-CD18 monoclonal antibody 60.3. The percentage of total CD18-dependent binding that was inhibited by each monoclonal antibody is shown below in Table 4 wherein the names assigned to monoclonal antibodies produced by each hybridoma are given and “ND” indicates the antibody was not tested. The monoclonal antibody names are used throughout the following examples instead of hybridoma designations.

Assay [2] addresses T1, Protein 1 (ICAM-R domain 1 fused to ICAM-1) (Homo sapiens, UniProt P05362+P32942, A175T/A179V/A227S/A249V/A265P/D143G/D183H/D240V/E159K/E168G/E234D/F135L/F230V/G202E/M196L/M262R/P127S/P187N/P238T/Q133K/Q164E/Q197R/R211Y/R214Q/R224Q/S145A/S149N/S162K/S180R/S236Q/T148A/T242S/V205E/V220A/W157G/W237G/Y255H).
T1 construct: immunoglobulin-like domain of ICAM-R (residues 1 to 93) fused to ICAM-1 (residue 117 to 532); ICAM-1 residue 117 to 532 (fusion partner in the same polypeptide); expressed in transfected cells; host or cells: COS cells, plasmid pcDNA1Amp.RD1.ID2-5
The assay is described as follows: FACS binding to COS cell transfectants. The settings on record: for percent positive COS cell transfectants, Protein 1: antibody 5.0 ug/ml. The text has this: (§1) FIG. 7 is a diagram of the chimeric proteins whose construction is outlined below. Protein number 1 contains the amino-terminal immunoglobulin-like domain of ICAM-R (residues 1 to 93) fused to ICAM-1 (residue 117 to 532). Protein number 2 contains the first two amino terminal immunoglobulin-like domains of ICAM-R (residues 1 to 190) fused to ICAM-1 (residues 216 to 532). Protein number 3 contains the first three immunoglobulin-like domains of ICAM-R (residues 1 to 291) fused to ICAM-1 (residues 317 to 532).
(§2) For the anti-ICAM-R monoclonal antibody binding assay, COS cells transfected with constructs encoding the ICAM-R chimeric proteins or control constructs were removed from the plates by EDTA treatment and aliquoted at 2.5×10^5 cells per well in a 96-well round bottom plate. Cells were washed 3 times with ice cold washing buffer (PBS containing 1% BSA and 0.05% sodium azide). Anti-ICAM-R monoclonal antibody was applied at 5.0 ug/ml in 50 ul final volume and incubated on ice for 30 minutes. Cells were then washed three times with cold washing buffer and incubated with the FITC labeled secondary antibody (sheep anti-mouse IgG F(ab′)2) at a 1:100 dilution on ice for 30 minutes in dark in 50 ul final volume. After the incubation, cells were washed again for three times in the ice cold washing buffer and resuspended in 200 ul of 1% paraformaldehyde. The samples were analyzed on a Becton-Dickinson FACScan instrument. Results of the assay are given below in Table 5 as percent positive COS cell transfectants, wherein MOPC 21 (IgG1) and UPC 10 (IgG2a) are isotype matched controls, 18E3D is an ICAM-1 specific monoclonal antibody and ICR-1.1 to ICR-9.2 are ICAM-R specific monoclonal antibodies. The reactivities of monoclonal antibodies ICR-1.1 through ICR-9.2 were assayed in a different experiment than monoclonal antibodies ICR-12.1 through ICR-17.1.

In assay [3] the target is T2, Protein 2 (ICAM-R domains 1-2 fused to ICAM-1) (Homo sapiens, UniProt P05362+P32942, A227S/A249V/A265P/D240V/E234D/F230V/M262R/P219L/P238T/R224Q/S236Q/T242S/V220A/W237G/Y255H).
T2 construct: domains of ICAM-R (residues 1 to 190) fused to ICAM-1 (residues 216 to 532); ICAM-1 residues 216 to 532 (fusion partner in the same polypeptide); expressed in transfected cells; host or cells: COS cells, plasmid pcDNA1Amp.RD1-2.1D3-5
The assay is described as follows: FACS binding to COS cell transfectants. The settings on record: antibody 5.0 ug/ml.
Source text: as §1, §2
For orientation: Flow cytometry measures light scatter and fluorescence of single cells or particles in a stream.

Another assay deals with human PBL. The assay is described as follows: SEA-induced proliferation of PBL. The class given is cell-based. The settings on record: for proliferation in response to SEA, plate-bound antibody: 3 days, 3H-thymidine.
Another assay concerns U937 cells. Nature of the assay: IL-8 release from U937. The class given is cell-based, human. On the procedure: Monocytes were isolated by elutriation from peripheral blood of normal donors. […] After blocking free sites, the cells were placed into the wells in medium. […] Those cells plated in wells treated with BSA plus or minus LPS were rounded and not spread. After 8 or 18 hours of incubation at 37° C., the medium was removed and assayed for IL-8 immunoreactivity. […] By 18 hours, IL-8 levels in media from ICR monoclonal antibody wells were much elevated over control levels. […] Similar experiments with monocytic cell lines (U937 and HL60) to determine if ICR monoclonal antibody can induce IL-8 release were conducted. U937 cells responded to each of the ICR monoclonal antibody treated wells by releasing IL-8 into the conditioned medium. […] No detectable morphological changes were detected with the U937 or HL60 cells.

T1 sequence (P32942+P05362 fused with the stated changes): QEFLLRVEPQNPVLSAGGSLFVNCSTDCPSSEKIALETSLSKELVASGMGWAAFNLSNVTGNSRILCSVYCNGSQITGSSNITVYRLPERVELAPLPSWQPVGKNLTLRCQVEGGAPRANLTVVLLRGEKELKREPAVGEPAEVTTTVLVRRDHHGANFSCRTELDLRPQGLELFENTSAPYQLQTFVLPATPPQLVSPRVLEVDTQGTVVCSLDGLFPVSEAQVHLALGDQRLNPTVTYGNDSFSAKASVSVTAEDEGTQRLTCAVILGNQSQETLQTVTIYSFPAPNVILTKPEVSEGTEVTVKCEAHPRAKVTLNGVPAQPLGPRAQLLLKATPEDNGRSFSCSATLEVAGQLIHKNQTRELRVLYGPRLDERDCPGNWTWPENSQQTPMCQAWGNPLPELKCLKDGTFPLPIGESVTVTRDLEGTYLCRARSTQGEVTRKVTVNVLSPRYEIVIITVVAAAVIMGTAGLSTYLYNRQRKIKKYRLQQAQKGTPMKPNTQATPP
T2 sequence (P32942+P05362 fused with the stated changes): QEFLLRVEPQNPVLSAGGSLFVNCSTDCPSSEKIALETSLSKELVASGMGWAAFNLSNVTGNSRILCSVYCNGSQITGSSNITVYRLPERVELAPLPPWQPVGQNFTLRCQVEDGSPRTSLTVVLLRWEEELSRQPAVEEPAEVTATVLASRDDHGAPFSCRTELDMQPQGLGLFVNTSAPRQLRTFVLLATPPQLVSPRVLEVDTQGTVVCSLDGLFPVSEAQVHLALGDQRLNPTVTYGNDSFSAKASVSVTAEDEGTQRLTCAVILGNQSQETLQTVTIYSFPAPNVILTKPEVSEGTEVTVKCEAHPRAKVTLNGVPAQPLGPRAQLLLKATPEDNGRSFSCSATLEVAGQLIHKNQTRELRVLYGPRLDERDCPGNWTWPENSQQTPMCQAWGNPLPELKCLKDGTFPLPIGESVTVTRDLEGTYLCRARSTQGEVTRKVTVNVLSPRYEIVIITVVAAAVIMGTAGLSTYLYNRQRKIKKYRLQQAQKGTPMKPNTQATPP

B1: ICR-8.1: anti-ICAM-R monoclonal antibody, IgG1, domain 1, ATCC HB 11232 (antibody, V domains shown)
VH: EIQLQQTGPELVKPGASVKISCKASGYSFTDCIILWVKQSHGKGLEWIGKINPYFGTTTYNLKFKGKATLTVDKSSSTAHMQLNSLTSEDSAVYYCARKEAYPDAMDYWGQGTSVTVSS
VL: DAVMTQTPLSLPVSLGDQASISCRSSQSLVHSNGDTYLHWYLQKPGQSPQLLIYKVSNRFSGVPDRFSGSGSGTDFTLKLSRVEAEDLGVYFCSQSTHVPYTFGGGTKLEIK
Turning to B1, in assay [1], the “Blockade of Adhesion of JY Cells to Soluble ICAM-R” value was “YES” and the “Inhibition (%) of total CD18-dependent binding” value was 75%. For the same molecule, in assay [2], the “recognition of hybrid with only ICAM-R domain 1 (domain 1 specific)” value is reported as “recognize the hybrid molecule” and the “percent positive COS cell transfectants, Protein 1” value turned out to be 57.34%. Further, the “percent positive COS cell transfectants, Protein 2” value in assay [3] turned out to be 64.25%. In the assay with human PBL, the “Blockade of Lymphocyte Activation SEA” value is “YES” and the “proliferation in response to SEA, plate-bound antibody” value is given as “significantly inhibited proliferation”. Moreover, the “IL-8 release relative to the BSA control” value in the assay with U937 cells is recorded as “twice”.

B2: ICR-1.1: anti-ICAM-R monoclonal antibody, IgG2a, domain 1, ATCC HB 11053 (antibody, V domains shown)
VH: QVQLQQSGAELAKPGASVKMSCKASGYTFTVYWMHWVKQRPGQGLEWIGYINPNTDYTEYNQRFQDKATLTADKSSSTAYMQLSSLTSEDSAVYYCARWGGNSYGLDYWGQGTSVTVSS
VL: QIVLTQSPALMSASPGEKVTMTCSASSSVSYIYWYQQKPRSSPKPWIYLTSNLASGVPARFSGSGSGASYSLTISIMEAEDAATYYCQQWKSIPLTFGAGTKLELK
By IC50 is commonly meant the point on the concentration scale where inhibition reaches its midpoint. As for B2, in assay [1], the “Blockade of Adhesion of JY Cells to Soluble ICAM-R” value was “YES” and the “Inhibition (%) of total CD18-dependent binding” value was 45%. In assay [2], the “recognition of hybrid with only ICAM-R domain 1 (domain 1 specific)” value is “recognize the hybrid molecule” and the “percent positive COS cell transfectants, Protein 1” value is 60.27%. For the same molecule, the “percent positive COS cell transfectants, Protein 2” value in assay [3] came out at 68.32%. Also, in the assay with human PBL, the “Blockade of Lymphocyte Activation SEA” value was “YES” and the “proliferation in response to SEA, plate-bound antibody” value was “significantly inhibited proliferation”. Moreover, the “IC50” value in the assay on human PBL (from logistic dose response curves, proliferation versus control antibodies) came to 63 µg/mL. Also, in the assay on U937 cells, the “IL-8 release relative to ICR-4.2, 6.2 or 8.1 treated wells” value stood at 3 fold.
